Results on 6 substances are retold here after US20230140293A1.

In assay [1] the target is CH505 M11 gp120 (HIV-1). Kind of assay: ELISA, gp120 on plate. On the technique in general: An ELISA detects its analyte on a solid surface through an enzyme-linked reagent.
The target in assay [2] is CH505 M5 gp120 (HIV-1). Briefly: ELISA, gp120 on plate.
Assay [3] addresses CH505 transmitted/founder (TF) gp120 (HIV-1). Briefly: ELISA, gp120 on plate.
Assay [4] addresses CH505 w020.14 gp120 (HIV-1). Briefly: ELISA, gp120 on plate.
Assay [5] has as its target CH505 w030.21 gp120 (HIV-1). Briefly: ELISA, gp120 on plate.
Assay [6] deals with CH505 w030.28 gp120 (HIV-1). Briefly: ELISA, gp120 on plate.
Assay [7] deals with CH505 w053.16 gp120 (HIV-1). Kind of assay: ELISA, gp120 on plate.
The target of assay [8] is CH505 w053.31 gp120 (HIV-1). Briefly: ELISA, gp120 on plate.
The target of assay [9] is CH505 w078.15 gp120 (HIV-1). Briefly: ELISA, gp120 on plate.
The target of assay [10] is CH505 w078.33 gp120 (HIV-1). Kind of assay: ELISA, gp120 on plate.
Assay [11] concerns the target CH505 w100.B6 gp120 (HIV-1). Kind of assay: ELISA, gp120 on plate.
The target in assay [12] is CH0505.w4.3 Env, Env-pseudotyped virus produced in 293T cells (HIV-1). Briefly: cell-based or functional assay.
Assay [13] addresses CH0505TF Env, Env-pseudotyped virus produced in 293T cells (HIV-1). Kind of assay: cell-based or functional assay.
Assay [14] addresses CH0505TF Env, pseudotyped virus produced in 293S GnTI- cells (HIV-1). Kind of assay: cell-based or functional assay.
The target of assay [15] is CH0505TF.G458Y Env, Env-pseudotyped virus produced in 293T cells (HIV-1). Briefly: cell-based or functional assay.
Assay [16] has as its target CH0505TF.G458Y Env, pseudotyped virus produced in 293S GnTI- cells (HIV-1). Briefly: cell-based or functional assay.
The target in assay [17] is CH0505TF.gly3.197 Env, Env-pseudotyped virus produced in 293T cells (HIV-1). Briefly: cell-based or functional assay.
For assay [18], the target named is CH0505TF.gly3.197 Env, pseudotyped virus produced in 293S GnTI- cells (HIV-1). Kind of assay: cell-based or functional assay.
Assay [19] concerns the target CH0505TF.gly3.276 Env, Env-pseudotyped virus produced in 293T cells (HIV-1). Briefly: cell-based or functional assay.
For assay [20], the target named is CH0505TF.gly3.276 Env, pseudotyped virus produced in 293S GnTI- cells (HIV-1). Kind of assay: cell-based or functional assay.
The target of assay [21] is CH0505TF.gly3.461 Env, Env-pseudotyped virus produced in 293T cells (HIV-1). Briefly: cell-based or functional assay.
Assay [22] deals with CH0505TF.gly3.461 Env, pseudotyped virus produced in 293S GnTI- cells (HIV-1). Briefly: cell-based or functional assay.
Assay [23] concerns the target CH0505TF.gly4 Env, Env-pseudotyped virus produced in 293T cells (HIV-1). Briefly: cell-based or functional assay.
For assay [24], the target named is CH0505TF.gly4 Env, pseudotyped virus produced in 293S GnTI- cells (HIV-1). Briefly: cell-based or functional assay.
Assay [25] addresses HIV-1 426c.DM (N460D/N463D) Env on Env-pseudotyped virus produced in 293T cells (HIV-1). Briefly: cell-based or functional assay.
Assay [26] addresses HIV-1 426c.DM (N460D/N463D) Env on Env-pseudotyped virus produced in 293s/GnTI-/- cells (Man5-enrichment) (HIV-1). Kind of assay: cell-based or functional assay.
Assay [27] has as its target HIV-1 426c.SM (N276D) Env on Env-pseudotyped virus produced in 293T cells (HIV-1). Briefly: cell-based or functional assay.
Assay [28] deals with HIV-1 426c.SM (N276D) Env on Env-pseudotyped virus produced in 293s/GnTI-/- cells (Man5-enrichment) (HIV-1). Briefly: cell-based or functional assay.
Assay [29] has as its target HIV-1 426c.TM (N276D/N460D/N463D) Env on Env-pseudotyped virus produced in 293T cells (HIV-1). Kind of assay: cell-based or functional assay.
The target in assay [30] is HIV-1 426c.TM (N276D/N460D/N463D) Env on Env-pseudotyped virus produced in 293s/GnTI-/- cells (Man5-enrichment) (HIV-1). Briefly: cell-based or functional assay.
The target in assay [31] is HIV-1 Env 426c, Env-pseudotyped virus produced in 293S GnTI- cells (Man5-enriched) (HIV-1 clade C strain 426c). Kind of assay: cell-based or functional assay.
For assay [32], the target named is HIV-1 Env 426c, Env-pseudotyped virus produced in 293T cells (HIV-1 clade C strain 426c). Briefly: cell-based or functional assay.
Assay [33] addresses HIV-1 Env 426c.DM (N460D.N463D), Env-pseudotyped virus produced in 293S GnTI- cells (Man5-enriched) (HIV-1 clade C strain 426c). Kind of assay: cell-based or functional assay.
Assay [34] addresses HIV-1 Env 426c.DM (N460D.N463D), Env-pseudotyped virus produced in 293T cells (HIV-1 clade C strain 426c). Kind of assay: cell-based or functional assay.
The target of assay [35] is HIV-1 Env 426c.SM (N276D), Env-pseudotyped virus produced in 293S GnTI- cells (Man5-enriched) (HIV-1 clade C strain 426c). Kind of assay: cell-based or functional assay.
Assay [36] deals with HIV-1 Env 426c.SM (N276D), Env-pseudotyped virus produced in 293T cells (HIV-1 clade C strain 426c). Briefly: cell-based or functional assay.
For assay [37], the target named is HIV-1 Env 426c.TM (N276D.N460D.N463D), Env-pseudotyped virus produced in 293S GnTI- cells (Man5-enriched) (HIV-1 clade C strain 426c). Briefly: cell-based or functional assay.
For assay [38], the target named is HIV-1 Env 426c.TM (N276D.N460D.N463D), Env-pseudotyped virus produced in 293T cells (HIV-1 clade C strain 426c). Briefly: cell-based or functional assay.
Assay [39] concerns the target HIV-1 Env 426c.TM4 (S278R.G471S.N460D.N463D), Env-pseudotyped virus produced in 293S GnTI- cells (Man5-enriched) (HIV-1 clade C strain 426c). Briefly: cell-based or functional assay.
For assay [40], the target named is HIV-1 Env 426c.TM4 (S278R.G471S.N460D.N463D), Env-pseudotyped virus produced in 293T cells (HIV-1 clade C strain 426c). Briefly: cell-based or functional assay.
Assay [41] has as its target HIV-1 clade C strain 426c Env on Env-pseudotyped virus produced in 293T cells (HIV-1). Briefly: cell-based or functional assay.
Assay [42] addresses HIV-1 clade C strain 426c Env on Env-pseudotyped virus produced in 293s/GnTI-/- cells (Man5-enrichment) (HIV-1). Kind of assay: cell-based or functional assay.
Assay [43] has as its target HIV-1 CH0505TF (CH505 transmitted/founder) Env on Env-pseudotyped virus produced in 293T cells (HIV-1). Kind of assay: cell-based or functional assay.
In assay [44] the target is HIV-1 CH0505TF.G458Y Env on Env-pseudotyped virus produced in 293T cells (HIV-1). Kind of assay: cell-based or functional assay.
Assay [45] addresses HIV-1 CH0505TF.N280D Env on Env-pseudotyped virus produced in 293T cells (HIV-1). Briefly: cell-based or functional assay.
Assay [46] has as its target HIV-1 CH0505TF.S365P Env on Env-pseudotyped virus produced in 293T cells (HIV-1). Briefly: cell-based or functional assay.

In the case of CH104 (antibody), the log AUC in [1] stood at 12 log AUC; in assay [2], 9 log AUC; in assay [3], 10.4 log AUC; in [4], 10.4 log AUC; in assay [5] it was 11.3 log AUC; in assay [6], 10.7 log AUC. Moreover, the log AUC came out at 9.9 log AUC in [7]; 13.7 log AUC in assay [8]; 10.8 log AUC in assay [9]; 9 log AUC in assay [10]; 11 log AUC in [11].

As to CH105 (antibody), the log AUC in [1] was found to be 11.7 log AUC; in [2] it was 8.6 log AUC; in assay [3] it was 11.2 log AUC; in [4], 10.4 log AUC; in [5], 10.6 log AUC; in assay [6], 9.1 log AUC. Besides, the log AUC in [7] turned out to be 9 log AUC; in assay [8] it was 13.5 log AUC; in [9] it was 10.1 log AUC; in [10], 8.9 log AUC; in [11], 11 log AUC.

On to CH106 (antibody), for which the log AUC in assay [1] is 12.8 log AUC; in [2] it was 8.4 log AUC; in [3], 11.3 log AUC; in assay [4], 11.2 log AUC; in assay [5], 10.9 log AUC; in assay [6], 11.7 log AUC. The log AUC in assay [7] amounted to 9.8 log AUC; in assay [8] it was 13.4 log AUC; in assay [9] it was 11 log AUC; in [10], 9.5 log AUC; in assay [11], 11.8 log AUC.

On to VRC-CH31 (antibody), for which the IC50 (µg/ml) in TZM-bl in assay [12] worked out at 0.05 µg/mL; in assay [13] it was 0.03 µg/mL; in assay [14], 0.04 µg/mL; in [15], 0.023 µg/mL; in [16], 0.06 µg/mL; in assay [17], 0.01 µg/mL. Moreover, the IC50 (µg/ml) in TZM-bl in assay [18] stood at 0.01 µg/mL; in assay [19] it was 0.002 µg/mL; in [20], 0.001 µg/mL; in [21], 0.09 µg/mL; in [22], 0.007 µg/mL; in assay [23], 0.002 µg/mL. In addition, the IC50 (µg/ml) in TZM-bl was 0.001 µg/mL in [24]; 0.04 µg/mL in assay [31]; 0.62 µg/mL in assay [32]; 0.02 µg/mL in [33]; 0.73 µg/mL in assay [34]; 0.7 µg/mL in [35]. The IC50 (µg/ml) in TZM-bl in assay [36] was greater than 25 µg/mL; in [37], 1.6 µg/mL; in assay [38], greater than 25 µg/mL; in assay [39], 0.01 µg/mL; in assay [40], 0.15 µg/mL; in [43], 0.03 µg/mL. The IC50 (µg/ml) in TZM-bl is less than 0.01 µg/mL in assay [44], greater than 25 µg/mL in [45] and 1.2 µg/mL in [46]. The ID50/IC50 in TZM-bl in [25] is 0.73 µg/mL; in [26], 0.02 µg/mL; in assay [27], greater than 25 µg/mL; in assay [28], 0.7 µg/mL; in [29], greater than 25 µg/mL; in [30], 1.6 µg/mL. For the same substance, the ID50/IC50 in TZM-bl in [41] was 0.62 µg/mL; in assay [42], 0.04 µg/mL.

For the substance 3BNC117 (antibody), the IC50 (µg/ml) in TZM-bl in [12] was 0.02 µg/mL; in assay [13], 0.03 µg/mL; in assay [14] it was 0.01 µg/mL; in assay [15] it was greater than 25 µg/mL; in [16] it was 18 µg/mL; in assay [17] it was 0.005 µg/mL. Besides, the IC50 (µg/ml) in TZM-bl in assay [18] worked out at 0.004 µg/mL; in assay [19], 0.001 µg/mL; in assay [20], 0.001 µg/mL; in [21] it was 0.002 µg/mL; in [22], 0.002 µg/mL; in assay [23], 0.001 µg/mL. The IC50 (µg/ml) in TZM-bl was 0.001 µg/mL in assay [24]; 0.02 µg/mL in [31]; 0.2 µg/mL in assay [32]; 0.006 µg/mL in assay [33]; 0.13 µg/mL in [34]; 0.01 µg/mL in assay [35]. Further, the IC50 (µg/ml) in TZM-bl in [36] is 0.24 µg/mL; in [37], 0.003 µg/mL; in assay [38], 0.01 µg/mL; in assay [39] it was less than 0.001 µg/mL; in assay [40] it was 0.003 µg/mL; in assay [43], 0.03 µg/mL. For the same substance, the values for the IC50 (µg/ml) in TZM-bl in [44], in assay [45] and in assay [46] were greater than 25 µg/mL, greater than 25 µg/mL and 0.01 µg/mL, respectively. Also, the ID50/IC50 in TZM-bl in [25] is 0.13 µg/mL; in [26], 0.006 µg/mL; in [27], 0.24 µg/mL; in assay [28], 0.01 µg/mL; in [29] it was 0.01 µg/mL; in assay [30] it was 0.003 µg/mL. The ID50/IC50 in TZM-bl in assay [41] came to 0.2 µg/mL; in assay [42], 0.02 µg/mL.

As to N6 (antibody), the IC50 (µg/ml) in TZM-bl is 0.01 µg/mL in assay [12]; 0.06 µg/mL in [13]; 0.016 µg/mL in [14]; 0.02 µg/mL in assay [15]; 0.008 µg/mL in assay [16]; 0.01 µg/mL in assay [17]. For the same substance, the IC50 (µg/ml) in TZM-bl was 0.003 µg/mL in assay [18]; 0.003 µg/mL in assay [19]; 0.004 µg/mL in assay [20]; 0.004 µg/mL in [21]; 0.002 µg/mL in [22]; 0.001 µg/mL in assay [23]. Besides, the IC50 (µg/ml) in TZM-bl is 0.001 µg/mL in assay [24]; 0.06 µg/mL in assay [43]; 0.02 µg/mL in [44]; greater than 17 µg/mL in [45]; 0.02 µg/mL in assay [46].
